Experimental data reported in publication PMC8752898 (The Journal of Biological Chemistry, 2021).
Ends that are not written are not given here.

T1: His6-SUMO-tagged MYC3 (44–238) (Arabidopsis thaliana, UniProt Q9FIP9)
T1 sequence (Q9FIP9 44-238): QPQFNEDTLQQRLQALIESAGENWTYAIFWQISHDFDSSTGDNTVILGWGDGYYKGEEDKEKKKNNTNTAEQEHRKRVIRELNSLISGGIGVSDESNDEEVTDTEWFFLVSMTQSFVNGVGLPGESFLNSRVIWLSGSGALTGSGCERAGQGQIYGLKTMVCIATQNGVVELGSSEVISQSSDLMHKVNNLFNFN

T2: His6-SUMO-tagged MYC3 (44-238) (Arabidopsis thaliana, UniProt Q9FIP9 44-238)
T2 sequence (looked up): T1 sequence (Q9FIP9 44-238)


How the values were obtained:
FLAG-MYC3 (full-length) = experiment: AlphaScreen assay of interaction with FLAG-MYC3; type: binding, Arabidopsis; conditions: FLAG-MYC3 50 nM, triplicate, in words; for AlphaScreen interaction of biotin-conjugated peptide with MYC3: Biotin-MED25^CMIDM 50, 150 or 250 nM
[1] = target: T1, His6-SUMO-tagged MYC3 (44–238); experiment: Fluorescence anisotropy; type: binding; conditions: in words
[2] = target: T2, His6-SUMO-tagged MYC3 (44-238); experiment: fluorescence polarisation

Molecule	AlphaScreen interaction of biotin-conjugated peptide with MYC3 (FLAG-MYC3 (full-length))	Kd [2] [nM]	further results
Biotin-MED25^CMIDM: biotin-conjugated CMIDM peptide of MED25 (614–655) (YVGKADFLVFRAMSQHGFLGQLQDKKLCAVIQLPSQTLLLSV; not fully specified (N-terminus); also: biotin-conjugated)	directly interact with MYC3		AlphaScreen interaction of partial peptides with FLAG-MYC3 (FLAG-MYC3 (full-length); peptide 150 nM each (Fig. 4D)): strong interaction
JAZ10^CMID: cryptic MYC-interacting domain of JAZ10 (26–58aa) (FQKFLDRRRSFRDIQGAISKIDPEIIKSLLAST; also: 5-carboxyfluorescein-conjugated) [reference compound]			binding affinity for MYC compared with Jas motif of JAZ and MED25 [1]: stronger binding affinity for MYC than both the Jas motif of JAZ and MED25
MED25^CMIDM: CMID-like MYC-interacting domain, amino acids 614 to 655 of MED25 (YVGKADFLVFRAMSQHGFLGQLQDKKLCAVIQLPSQTLLLSV; also: biotin-conjugated)	confirmed		interaction between MYC3 and CMIDM in FA assay ([1]; Fig. 5B): confirmed
YVGKADFLVFRAMSQHGFLGQLQDKKLCAVIQLPSQTLLLSV (peptide, UniProt Q7XYY2 614-655, looked up, also: 5-carboxyfluorescein-conjugated) [fluorescein-conjugated MED25^CMIDM (614-655aa)]		1900	
FQKFLDRRRSFRDIQGAISKIDPEIIKSLLAST (peptide, UniProt Q93ZM9 26-58, looked up, also: 5-carboxyfluorescein-conjugated) [fluorescein-conjugated JAZ10^CMID (26-58aa)]		470	
